Article PMC9076830, “Structure of the Arabidopsis guard cell anion channel SLAC1 suggests activation mechanism by phosphorylation” (Nature Communications, 2022)

Target: the molecule itself
Test: cryo-EM structure; single-particle analysis of purified AtSLAC1 S59A in 25 mM HEPES pH 7.4, 150 mM NaCl, 0.03% digitonin; final refinement with C3 symmetry; 2.7 Å

B1: Arabidopsis thaliana slow anion channel 1 (AtSLAC1) S59A mutant (natural protein, UniProt Q9LD83 1-556, looked up)
chain: MERKQSNAHSTFADINEVEDEAEQELQQQENNNNKRFSGNRGPNRGKQRPFRGFSRQVALETGFSVLNRESRERDDKKSLPRSGRSFGGFESGGIINGGDGRKTDFSMFRTKSTLSKQKSLLPSIIRERDIENSLRTEDGETKDDSINENVSAGRYFAALRGPELDEVKDNEDILLPKEEQWPFLLRFPIGCFGICLGLSSQAVLWLALAKSPATNFLHITPLINLVVWLFSLVVLVSVSFTYILKCIFYFEAVKREYFHPVRVNFFFAPWVVCMFLAISVPPMFSPNRKYLHPAIWCVFMGPYFFLELKIYGQWLSGGKRRLCKVANPSSHLSVVGNFVGAILASKVGWDEVAKFLWAVGFAHYLVVFVTLYQRLPTSEALPKELHPVYSMFIAAPSAASIAWNTIYGQFDGCSRTCFFIALFLYISLVARINFFTGFKFSVAWWSYTFPMTTASVATIKYAEAVPGYPSRALALTLSFISTAMVCVLFVSTLLHAFVWQTLFPNDLAIAITKRKLTREKKPFKRAYDLKRWTKQALAKKISAEKDFEAEEESHH
modifications: S146 and S543 identified as phosphorylated by mass spectrometry of the purified S59A mutant
notes: Slow anion channel 1 (SLAC1), Arabidopsis thaliana, full length, 556 residues; codon-optimised synthetic DNA; residues 150-517 modelled in the structure; No step that removes the tags is described; not shown: Flag, N-terminal, kept
**Q.** With B1 as the protein, how does the “stoichiometry N” value read?
**A.** Its value is 3.
